Assays:
IL-23 [1] = molecular target: T1, IL-23 (Homo sapiens, UniProt Q9NPF7); assay: Inhibition of IL-23 stimulated IL-17 production; type: cell-based; conditions: read-out: inhibition of IL-23 stimulated IL-17 production, inhibitory concentration (IC) 50
T1 sequence (Q9NPF7 20-189): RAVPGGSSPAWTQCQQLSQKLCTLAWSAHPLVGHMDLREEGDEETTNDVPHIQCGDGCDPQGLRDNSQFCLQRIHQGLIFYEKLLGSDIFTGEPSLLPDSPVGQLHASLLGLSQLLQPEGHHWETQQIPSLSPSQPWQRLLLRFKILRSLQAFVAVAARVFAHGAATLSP
T1 sequence (P29460 23-328 partner): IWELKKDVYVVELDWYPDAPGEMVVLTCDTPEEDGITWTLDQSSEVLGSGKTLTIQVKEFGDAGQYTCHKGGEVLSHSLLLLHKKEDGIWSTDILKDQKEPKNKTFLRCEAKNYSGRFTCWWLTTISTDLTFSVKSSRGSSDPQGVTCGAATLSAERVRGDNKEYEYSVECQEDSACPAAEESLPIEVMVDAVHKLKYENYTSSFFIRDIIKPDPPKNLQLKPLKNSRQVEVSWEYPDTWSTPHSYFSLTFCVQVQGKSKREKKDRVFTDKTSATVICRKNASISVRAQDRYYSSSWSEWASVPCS

healthy adult subjects = assay: Anti-drug antibody (ADA) incidence after single 150 mg SC dose, bridging electrochemiluminescence immunoassay; type: in vivo, human; conditions: 113 days
Description: A single-dose, randomized, two-parallel-arm, open-label, multi-center study in healthy adult subjects was carried out. Subjects received a risankizumab 150 mg dose by subcutaneous (SC) injection in the abdomen using a 150 mg/ml formulation in a prefilled syringe (PFS). Arm 1: Risankizumab 150 mg/mL formulation in PFS produced by Process 4 (150 mg×1 SC injection) (test, N=132); Arm 2: Risankizumab 150 mg/mL formulation in PFS produced by Process 2 (150 mg×1 SC injection) (reference, N=130). Serial blood samples for anti-drug antibody (ADA) were collected over a period of 113 days. […]
The presence of ADA was determined using a validated titer based bridging electrochemiluminescence immunoassay as described below.
This is a qualitative assay designed to detect anti-risankizumab antibodies in human serum. Anti-drug antibodies (ADA) against risankizumab in human serum were detected using an electrochemiluminescent (ECL) immunoassay. […] This complex was bound to a blocked MSD-streptavidin (MSD-SA) plate and detected by a chemiluminescent signal that was generated when voltage was applied. […]
Samples were analyzed in a tiered approach. […]
The confirmatory assay measured the percent inhibition of ECL immunoassay signals of screened positive samples when spiked with excess risankizumab. […]

IL-23 [2] = molecular target: T1, IL-23; assay: Binding to human IL-23
ADCC activity = assay: ADCC activity
Source text: (§1) Risankizumab has been designed with Leu234Aa and Leu235Aa mutations in Fc to diminish its Fc effector binding activity.

CDC activity = assay: CDC activity
Source text: as §1

IL-12 = molecular target: T2, IL-12 (Homo sapiens, UniProt P29459+P29460); assay: IL-12 effect / IL-12 stimulated IFN-γ production; type: cell-based
T2 sequence (P29459 23-219): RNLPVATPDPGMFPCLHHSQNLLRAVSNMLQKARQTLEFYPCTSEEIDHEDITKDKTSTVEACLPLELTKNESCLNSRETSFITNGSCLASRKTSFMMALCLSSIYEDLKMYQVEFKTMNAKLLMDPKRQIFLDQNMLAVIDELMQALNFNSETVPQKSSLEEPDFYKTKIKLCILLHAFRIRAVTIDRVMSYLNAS
T2 sequence (P29460 23-328): T1 sequence (P29460 23-328 partner)

[3] = Size exclusion chromatography (UP-SEC/SEC): monomer and HMW; type: physicochemical; conditions: compared to Process 1 reference standard DS1-RS2
Source text: (§2) The PLBL2 KO, PLA2G15 KO, LPL KO and wild-type process control materials were thawed and purified using Process 1 (see Example 1), while ultrafiltration/diafiltration (UF/DF) followed Process 4 (see Example 3). […] High molecular weight (HMW) by size exclusion chromatography (SEC), charge variants by weak cation exchange chromatography (WCX), low molecular weight (LMW) by non-reduced capillary electrophoresis sodium dodecyl sulfate (CE-SDS), free fatty acids (FFA) and PS20 levels were monitored during the stability study at various time points.
(§3) Antibody preparations derived from the knock-out samples and controls were tested for the presence of the three lipases by specific ELISA methods: PLBL2 and PLA2G15 were measured using CHO-specific in-house methods and LPL was measured using a commercial anti-mouse ELISA kit. PS20 stability was measured in samples that were incubated for different lengths of time (several time points over a 12-month period) and different temperatures (5° C., 25° C., 40° C.) using two different methods. One method measured the total amount of PS20 present in the sample; PS20 was quantified directly by using a RP-HPLC-CAD method. The other method assessed the breakdown of PS20 by measuring the amount of free fatty acid, mainly lauric acid that was released by hydrolysis. […] The generated signal is directly proportional to the quantity of FFAs released. […]

[4] = Non-reduced capillary gel electrophoresis (CGE-NR / CE-SDS): main peak and LMW; type: physicochemical; conditions: compared to Process 1 reference standard DS1-RS2
Source text: as §2, §3

[5] = Hitchhiker protein spiking study, PS20-CAD subspecies method; type: biochemical; conditions: for activity to PS20 degradation: DP3 and DP4 materials spiked with enzyme (summary); for PS20 degradation: ~30 hours incubation at 25° C.
Source text: PS20-CAD subspecies method was used. This method was originally developed to qualitatively determine subspecies composition and to quantify the PS20 subspecies relative to a PS20 manufacturing standard. The HPLC system used in this study was an Agilent 1260 II infinity HPLC equipped with a quaternary pump, mobile phase degassing unit, refrigerated auto sampler, temperature controlled column compartment, and a Thermo Scientific charged aerosol detector (CAD). Data was collected by Waters Empower acquisition system. Methods for detecting PS20 using Charged Aerosol Detector (CAD) are also described in Example 10.
Since the system takes 70 minutes to finish each injection (labeled as “injection” in Table 19), repeated injections measured the degradation patterns (profiles) at different incubation times. All samples were kept in a 25° C. autosampler during the entire test.
PS20-CAD subspecies method described above was used.
The solution was mixed and tested. All samples were studied at 25° C.
The solution was mixed and tested. All samples were studied at 25° C. […] More information can be found in Table 21A.
The solution was mixed and tested. More information regarding the study design can be found in Table 21A.
The solution was mixed and tested. More information regarding the study design can be found in Table 21B below.
The solution was mixed and tested. More information regarding the study design can be found in Table 21B.

ustekinumab: comparator in the same IL-23 stimulated IL-17 production system [reference compound]
IC50 (IL-23 [1]): 0.167 nM

Immunoglobulin G1, anti-(human interleukin 23 subunit p19) (human-Mus musculus heavy chain), disulfide with human-Mus musculus κ-chain, dimer [risankizumab]
treatment-emergent ADA incidence (healthy adult subjects): low
binding to human IL-23 (IL-23 [2]): high affinity
IC50 (IL-23 [1]): < 0.01 nM
ADCC activity (ADCC activity): does not possess
COC activity (CDC activity): does not possess
inhibition of IL-12 stimulated IFN-γ production (IL-12): does not inhibit
effect on IL-12 (IL-12; maximum tested concentration (33 nM)): does not affect

DS4-005: risankizumab Process 4 drug substance batch
HMW peak by UP-SEC [3]: smaller
LMW peak by CGE-NR [4]: smaller

B1: PLA2G7: Recombinant human PLA2G7/PAF-AH/LP-PLA2 protein (5106-PL-010, Bio-techne) (protein, UniProt Q13093 22-441, looked up)
Platelet-activating factor …: FDWQYINPVAHMKSSAWVNKIQVLMAAASFGQTKIPRGNGPYSVGCTDLMFDHTNKGTFLRLYYPSQDNDRLDTLWIPNKEYFWGLSKFLGTHWLMGNILRLLFGSMTTPANWNSPLRPGEKYPLVVFSHGLGAFRTLYSAIGIDLASHGFIVAAVEHRDRSASATYYFKDQSAAEIGDKSWLYLRTLKQEEETHIRNEQVRQRAKECSQALSLILDIDHGKPVKNALDLKFDMEQLKDSIDREKIAVIGHSFGGATVIQTLSEDQRFRCGIALDAWMFPLGDEVYSRIPQPLFFINSEYFQYPANIIKMKKCYSPDKERKMITIRGSVHQNFADFTFATGKIIGHMLKLKGDIDSNVAIDLSNKASLAFLQKHLGLHKDFDQWDCLIEGDDENLIPGTNINTTNQHIMLQNSSGIEKYN
activity to PS20 degradation [5]: moderate activities
PS20 degradation pattern (profile) versus pattern observed in DP2 materials ([5]; DP3 spiked with 5 μg/mL enzyme, 25° C.): very different
PS20 degradation ([5]; DP3 spiked with 5 μg/mL enzyme): caused PS20 degradation with a relatively high activity

B2: PRDX6: Recombinant human Peroxiredoxin 6 protein (ab87631, Abcam) (protein, UniProt P30041 2-224, looked up)
Peroxiredoxin-6: PGGLLLGDVAPNFEANTTVGRIRFHDFLGDSWGILFSHPRDFTPVCTTELGRAAKLAPEFAKRNVKLIALSIDSVEDHLAWSKDINAYNCEEPTEKLPFPIIDDRNRELAILLGMLDPAEKDEKGMPVTARVVFVFGPDKKLKLSILYPATTGRNFDEILRVVISLQLTAEKRVATPVDWKDGDSVMVLPTIPEEEAKKLFPKGVFTKELPSGKKYLRYTPQP
activity to PS20 degradation [5]: very low activities
PS20 degradation ([5]; DP3 spiked with 5 μg/mL enzyme): no detectable PS20 degradation

B3: PLA2G15: hitchhiker protein enzyme spiked into DP3/DP4 material (protein)
chain: VQRHPPVVLVPGDLGNQLEAKLDKPKVVHYLCSKRTDSYFTLWLNLELLLPVIIDCWIDNIRLVYNRTSRATQFPDGVDVRVPGFGETFSLEFLDPSKRTVGSYFHTMVESLVGWGYTRGEDLRGAPYDWRRAPNENGPYFLALREMIEEMYQMYGGPVVLVAHSMGNMYTLYFLQRQPQAWKDKYIHAFISLGAPWGGVAKTLRVLASGDNNRIPVIGPLKIREQQRSAVSTSWLLPYNHTWSHDKVFVHTPTTNYTLRDYHQFFQDIRFEDGWFMRQDTEGLVEAMMPPGVELHCLYGTGVPTPDSFYYESFPDRDPKICFGDGDGTVNLESVLQCQAWQSRQEHKVSLQELPGSEHIEMLANATTLAYLKRVLFEP
PS20 degradation pattern (profile) versus pattern observed in DP2 materials ([5]; DP3 spiked with 1 μg/mL PLA2G15, 25° C.): matches
PS20 degradation rate versus spiking level ([5]; DP4 spiked with 0.01875-0.6 ng/mg PLA2G15, 25° C.): concentration dependent PS20 degradation rates were observed

From patent publication US20250313619A1, “RISANKIZUMAB COMPOSITIONS” (ABBVIE INC., priority 0001, published 2025)
